T1: His-tagged IgD2-D3 of human FGFR3-IIIb (human, UniProt P22607-2 143-374, limits assumed)
T1 construct: domain: IgD2-D3; also called FGFR3-IIIb-His protein; Human FGFR3 ECD IIIb; not shown: His tag
T1 sequence (looked up): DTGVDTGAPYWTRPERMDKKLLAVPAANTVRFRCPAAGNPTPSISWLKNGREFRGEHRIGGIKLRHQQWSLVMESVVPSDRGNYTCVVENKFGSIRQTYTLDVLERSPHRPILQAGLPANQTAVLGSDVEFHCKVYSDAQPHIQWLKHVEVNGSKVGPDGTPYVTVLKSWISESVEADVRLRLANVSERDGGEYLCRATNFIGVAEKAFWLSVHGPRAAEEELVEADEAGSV

T2: human FGFR3-IIIb ECD-human Fc chimeric protein (human, UniProt P22607-2 23-377)
T2 construct: extracellular domain; also called FGFR3-Fc chimeric protein (IIIb); not shown: human Fc
T2 sequence (looked up): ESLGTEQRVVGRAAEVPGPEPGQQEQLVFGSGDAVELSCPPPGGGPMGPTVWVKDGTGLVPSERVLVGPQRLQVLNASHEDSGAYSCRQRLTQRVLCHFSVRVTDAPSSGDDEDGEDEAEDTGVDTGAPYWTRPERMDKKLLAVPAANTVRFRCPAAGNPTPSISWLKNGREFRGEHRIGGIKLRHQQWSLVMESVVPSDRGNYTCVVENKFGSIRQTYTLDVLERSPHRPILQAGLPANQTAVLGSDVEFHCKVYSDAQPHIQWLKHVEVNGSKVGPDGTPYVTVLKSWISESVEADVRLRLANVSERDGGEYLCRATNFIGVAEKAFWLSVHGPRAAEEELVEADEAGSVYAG


Experiments:
[1] = biological target: T3, FGFR3 on OPM2 cells (human, UniProt P22607); test: Scatchard analysis: radioiodinated (125I) R3Mab on OPM2 cells in suspension with unlabeled antibody, 2 h at room temperature; mean of two binding experiments
T3 construct: full length, on cells; also called FGFR3 K650E
Description: (§1) FIGS. 23A and 23B: Cell surface expression levels of FGFR3 in myeloma and bladder cancer cells. (FIG. 23A) Cell surface FGFR3 expression in myeloma cells and bladder cancer cells assessed by FACS analysis. Cells were stained with phycoerythin-conjugated mouse mAb against human FGFR3 (FAB766P, R&D Systems) or phycoerythin-conjugated isotype control mouse IgG1(BD Pharmingen). (FIG. 23B) Scatchard analysis of FGFR3 density in myeloma cells and bladder cancer cells. […] After incubation at RT for 2 hours, cells were pelleted by centrifugation and washed twice. Specifically bound ¹²⁵I was determined.

[2] = biological target: T4, FGFR3 on KMS11 cells (human, UniProt P22607); test: Scatchard analysis: radioiodinated (125I) R3Mab on KMS11 cells in suspension with unlabeled antibody, 2 h at room temperature; mean of two binding experiments
T4 construct: full length, on cells; also called FGFR3 Y373C
Description: as §1

[3] = biological target: T5, FGFR3 on RT112 cells (human, UniProt P22607-2); test: Scatchard analysis: radioiodinated (125I) R3Mab on RT112 cells in suspension with unlabeled antibody, 2 h at room temperature; mean of two binding experiments
T5 construct: full length, on cells; also called WT FGFR3
Description: as §1

[4] = biological target: T1, His-tagged IgD2-D3 of human FGFR3-IIIb; test: BIAcore; R3Mab on CM5 chip, FGFR3-His injected
Description: For kinetic measurement, two-fold serial dilutions of FGFR3-IIIb or IIIc-His protein (starting from 67 nM) were injected in PBST buffer at 25° C. with a flow rate of 30 μl/minute. Association rates (Kon, per mol/s) and dissociation rates (Koff, per s) were calculated using a simple one-one Langmuir binding model (BIAcore Evaluation Software version 3.2). The equilibrium dissociation constant (Kd, per mol) was calculated as the ratio of Koff/Kon.

[5] = biological target: T6, FGFR3 on UMUC-14 cells (human, UniProt P22607-2); test: Scatchard analysis: radioiodinated (125I) R3Mab on UMUC-14 cells in suspension with unlabeled antibody, 2 h at room temperature; mean of two binding experiments
T6 construct: full length, on cells; Same protein as r1, here on intact cells and not in lysates; also called FGFR3^S249C on cells
Description: as §1

[6] = biological target: T2, human FGFR3-IIIb ECD-human Fc chimeric …; test: ELISA: blocking of FGF9 binding to captured FGFR3-IIIb-Fc
Description: (§2) Specific binding was detected using an anti-human Fab antibody. […] Error bars represent standard error of the mean (SEM) and are sometimes smaller than symbols.
(§3) To test the effect of antibodies to FGFR3 on FGF/FGFR3 interaction, FGFR3-Fc chimeric proteins were captured on Maxisorp plate coated with anti-human immunoglobulin Fcγ fragment-specific antibody (Jackson Immunoresearch, West Grove, Pa.). After wash, increasing amount of FGFR3 antibody was added to the plate and incubated for 30 minutes.

[7] = biological target: T2, human FGFR3-IIIb ECD-human Fc chimeric …; test: direct ELISA: FGFR ECD-human Fc chimeric protein coated on the plate, R3Mab titrated, detection with HRP anti-human Fab
Text: as §2
(§4) cDNAs encoding the extracellular domains (ECD) of human FGFR1-IIIb, IIIc, FGFR2-IIIb and IIIc, FGFR3-IIIb and IIIc, and FGFR4 were cloned into pRK-based vector to generate human FGFR-human Fc chimeric proteins. The recombinant proteins were produced by transiently transfecting Chinese hamster ovary (CHO) cells and purified via protein A affinity chromatography. To test binding of antibodies to human FGFRs, Maxisorp 96-well plates (Nunc) were coated overnight at 4° C. with 50 μl of 2 μg/ml of FGFR ECD-human Fc chimeric proteins. After blocking with phosphate-buffered saline (PBS)/3% BSA, FGFR3 antibody was added and incubated at RT for 2 hours. Specifically bound FGFR3 antibody was detected using an HRP-conjugated anti-human Fab and the TMB peroxidase colorigenic substrate (KPL, Gaithersburg, Md.).

[8] = biological target: T7, human FGFR4 ECD-human Fc chimeric protein (human, UniProt P22455 22-369); test: as above
T7 construct: extracellular domain; not shown: human Fc
Text: as §2, §4

[9] = biological target: T2, human FGFR3-IIIb ECD-human Fc chimeric …; test: ELISA: blocking of FGF1 binding to captured FGFR3-IIIb-Fc
Description: as §2, §3

[10] = biological target: T1, His-tagged IgD2-D3 of human FGFR3-IIIb; test: BIAcore

Kd [1] [pM] | Kd [2] [pM] | Kd [3] [pM] | Kd [4] [pM] | koff [4] [s⁻¹] | kon [4] [M⁻¹ s⁻¹] | Kd [5] [pM] | IC50 [6] [pM] | EC50 (read off the curve) [7] [pM] | binding result [8] | IC50 [9] [pM] | Kd [10] [pM] | Binder
640 | 350 | 160 | 111 | 0.0002 | 1.8e+06 | 340 | 1100 | ~300 | no binding (tested: about 60 nM) | 300 |  | anti-FGFR3 antibody clone 184.6.1N54S (antibody, V domains shown, also called R3Mab; R3 Mab) VH: EVQLVESGGGLVQPGGSLRLSCAASGFTFTSTGISWVRQAPGKGLEWVGRIYPTSGSTNYADSVKGRFTISADTSKNTAYLQMNSLRAEDTAVYYCARARTYGIYDLYVDYTEYVMDYWGQGTLV VL: DIQMTQSPSSLSASVGDRVTITCRASQDVDTSLAWYQQKPGKAPKLLIYSASFLYSGVPSRFSGSGSGTDFTLTISSLQPEDFATYYCQQSTGHPQTFGQGTKVEIKR
 |  |  |  |  |  |  |  |  |  |  | 190 | anti-FGFR3 antibody clone 184.6.58 (antibody, V domains shown) VH: EVQLVESGGGLVQPGGSLRLSCAASGFTFTSTGISWVRQAPGKGLEWVGRIYPTNGSTNYADSVKGRFTISADTSKNTAYLQMNSLRAEDTAVYYCARTYGIYDLYVDYTEYVMDYWGQGTLVTVSS VL: DIQMTQSPSSLSASVGDRVTITCRASQDVDISLAWYQQKPGKAPKLLIYSASSLASGVPSRFSGSGSGTDFTLTISSLQPEDFATYYCQQGAGNPYTFGQGTKVEIK

Source: patent US20160168250A1 (Genentech, published 2016)
